# Measured values from patent US20250222125A1, “Anti-FGFR2b Antibodies, Conjugates and Methods of Use” (BeiGene, Ltd., priority 2024, published 2025).
# Entries after “also recorded” stand apart in the source; their conditions may differ.
# B1: BGAm1371: parental murine anti-FGFR2b antibody (parental mouse clone); VH SEQ ID NO: 32, VL SEQ ID NO: 34 (antibody, V domains shown)
# VH: QVQLKQSGAELVKPGASVKLSCTASGFNIKDTYIHWVKQRPEQGLEWIGRIDPANGNTMFASEFQGKATITAYTSSNTAYMQLSSLTSGDTAVYYCARSKIHYDYDEGFAYWGQGTLVTVSS
# VL: NIVLTQSPPSLAVSLGQRATVSCRASESVDDYGYSFLHWYQQKPGQPPKLLIYRASNLESGIPARFSGSGSRTDFTLTINPVETDDVATYYCQQSNQNPRTFGGGTKLEIK
# modifications: Synthetic: VH AA; Synthetic: VL AA
# B2: BGAh9239: humanized anti-FGFR2b IgG1 antibody from murine BGAm1823; VH SEQ ID NO: 9, VL SEQ ID NO: 10 (antibody, V domains shown)
# VH: QVQLVQSGAEVKKPGSSVKVSCKASGYTFSIYWLNWVRQAPGQGLEWMGQIYPENADTNYSGKFKGRVTITADKSTSTAYMELSSLRSEDTAVYFCARGGFDYWGQGTLVTVSS
# VL: DIQMTQSPSSLSASVGDRVTITCRASENIYSNLAWYQQKPGKAPKLLIYTATNLAEGVPSRFSGSGSGTDFTLTISSLQPEDFATYYCQHFYGILYTFGQGTRLEIK
# modifications: Synthetic: VH AA; Synthetic: VL AA
# B3: Aprutumab ixadotin: FGFR2 antibody conjugated to auristatin (conjugate, chains of the INN, looked up)
# VH: EVQLLESGGGLVQPGGSLRLSCAASGFTFSSYAMSWVRQAPGKGLEWVSAISGSGTSTYYADSVKGRFTISRDNSKNTLYLQMNSLRAEDTAVYYCARVRYNWNHGDWFDPWGQGTLVTVSS
# VL: QSVLTQPPSASGTPGQRVTISCSGSSSNIGNNYVSWYQQLPGTAPKLLIYENYNRPAGVPDRFSGSKSGTSASLAISGLRSEDEADYYCSSWDDSLNYWVFGGGTKLTVL
# modifications: auristatin payload conjugate
# notes: FGFR2 antibody conjugated to auristatin
# Columns and labels:
# [1] = test system: phosphorylated FGFR in SNU-16 cells; test: Inhibition of FGFR2 signaling in SNU-16 cells (Western blot of pFGFR); assay type: cell-based; conditions: antibody 10 μg/ml, FGF7 10 ng/ml, 2 hours
# Experimental: Inhibition of the FGFR2 signaling pathway by the humanized antibodies was investigated. SNU-16 cells were grown in RPMI-1640 medium with 10% FBS, collected and washed twice with free medium and then seeded in 12-well plates at 1.5E6 cells/well in serum-free RPMI-1640. The plates were incubated at 37° C., 5% CO2, and 95% humidity in an incubator overnight. Anti-FGFR2b antibodies at a concentration of 10 μg/ml were added to the assay plates. Recombinant human FGF7 or FGF10 protein (10 ng/ml) in the presence of heparin (5 μg/ml) was added to the assay plates. The plates were incubated in a 37° C., 5% CO2, 95% humidity incubator for 2 hours. Following 2 hours incubation, cells were collected and washed twice with cold PBS. NP40 lysis buffer containing 1×PMSF and 1× Protease plus phosphatase inhibitors were added to the cell pellets. The mixture was pipetted up and down to suspend the pellet. The mixture was inverted gently and each placed for 10 minutes on ice, for a total of 30 minutes. The mixture was centrifuged at 12000× rpm for 10 minutes to pellet the cell debris. The supernatant was transferred to a new tube to quantify total protein concentration by BCA Kit. The protein samples were then split and stored at −80° C. for further Western blotting to detect the expression of pFGFR and total FGFR2.
# Western blotting procedure: The completely thawed protein samples were mixed with 4×SDS loading buffer and were heated for 10 min at 37° C. Then the mixtures were centrifuged at ˜3500×rpm for 5 min. Equal amounts of proteins were loaded into an SDS-PAGE gel, whereafter proteins were transferred to PVDF membranes using iBlot. The membranes were then subjected to Western blotting analysis, focusing on phosphorylated FGFR and total FGFR2.
# Human FGFR2c OE cells = Human FGFR2c OE cells (Homo sapiens, UniProt P21802); test: FACS cellular binding, human FGFR2c OE cells (Example 4)
# Experimental: (§1) The binding affinity and specificity of purified anti-FGFR2b antibodies were determined by ELISA and FACS. […] After incubation and washing, the plates were developed with HRP substrate and absorbance was measured. […] After washing twice with FACS buffer, diluted Alexa Fluor 647 goat anti-human IgG secondary antibody was added and incubated with cells for 30 minutes at 4° C. in the dark. After washing twice with FACS buffer, cells were resuspended with FACS buffer and read using a Becton Dickinson LSR FortessaTM cell analyzer. Non-specific binding of these antibodies was evaluated by FACS binding against parental 293T blank cells. Titration curves were generated using a sigmoidal dose-response of nonlinear fit from GraphPadTM Software by Dotmatics.
# human FGFR2b [2] = target: T1, human FGFR2b (Homo sapiens, UniProt P21802); test: ELISA protein binding to human FGFR2b (Example 4); conditions: coated protein
# Experimental: as §1
# Human FGFR2c [3] = target: T2, Human FGFR2c (Homo sapiens, UniProt P21802); test: ELISA protein binding to human FGFR2c (Example 4); conditions: coated protein
# Experimental: as §1
# Cyno FGFR2b [4] = test: SPR affinity determination, cyno FGFR2b (Example 9); assay type: binding
# Experimental: (§2) For affinity determination, antibodies were captured by anti-human Fc antibodies, and used in the affinity assay based on surface plasmon resonance (SPR) technology. SPR signals were analyzed to calculate the association rates (ka) and dissociation rates (kd) by using the one-to-one Langmuir binding model (BIA Evaluation Software, GE Life Sciences). The equilibrium dissociation constant (KD) was calculated as the ratio of kd/ka. Rmax represents the maximal feasible SPR signal generated by an interaction between a ligand-analyte pair and is represented in response units (RU). BGAh9239 and BGA9179 show similar binding profiles to human FGFR2b and cyno FGFR2b, and are similar to their parental antibodies BGAm1823 and BGAm1371, respectively.
# BaF3_hFGFR2b OE cells = test: Ligand-induced proliferation inhibition assay in BaF3_hFGFR2b OE cells; assay type: cell-based; conditions: antibody 10 μg/ml, heparin 5 μg/ml, 72 hours
# Experimental: The inhibition activity of antibody on ligand-induced cell proliferation was evaluated in an FGFR2b engineered BaF3 cell line system (BaF3_hFGFR2b OE). BaF3 cells are dependent on interleukin-3 (IL-3) for growth. The BaF3 system allows for testing of kinases and kinase inhibitors. Some protein kinases can render BaF3 cells to be independent of IL-3, whereas kinase inhibitors antagonize this effect. Cells were seeded in 96-well plates at 30,000 cells/well in RPMI-1640 medium containing 10% fetal bovine serum. Anti-FGFR2b antibodies at a concentration of 10 μg/ml were added to the assay plates. Recombinant human FGF7 or FGF10 protein (40 ng/ml) in the presence of heparin (5 μg/ml) was added to the assay plates. The plates were incubated at 37° C., 5% CO2, 95% humidity in an incubator for 72 hours. Following incubation, 50 μl Cell Titer Glo reagent was added to each well and the plates were mixed for 1 min and then incubated at RT for 10 min. Luminescence signals were detected and recorded.
# The Ba/F3 system is used to investigate downstream oncogenic signaling pathways and the susceptibility of driver variants to therapeutics. Driver-addicted Ba/F3 cells die when the driver-engaged signaling pathway is inhibited, and this effect can be rescued by re-introduction of […].
# FIGS. 6 and 7 show the results of Ba/F3 proliferation assays. The net growth on Ba/F3 cells overexpressing FGFR2b is reported after treatment with anti-FGFR2b antibodies of the present disclosure. Normal Ba/F3 cells die shortly after withdrawal of exogenous […]. […] Comparator BGA2311 binds at the N-terminus and is not considered to be a ligand blocker. Thus, BGAm1371 may partially block the FGFR2b signaling pathway, such as the signaling pathway mediated by FGF7.
# 293T blank cells = test: FACS non-specific binding, parental 293T blank cells (Example 4)
# Experimental: as §1
# Mouse FGFR2b = target: T3, Mouse FGFR2b (Mus musculus, UniProt P21803); test: FACS binding on Expi293 cells, mouse FGFR2b (Example 10); conditions: Expi293 cells overexpressing mouse FGFR2b
# T3 construct: expressed in transfected cells; host or cells: Expi293
# Experimental: (§3) To evaluate the binding activity of anti-FGFR2b antibodies to native FGFR2b on living cells, Expi293 cells were engineered to overexpress human FGFR2b, cyno FGFR2b, mouse FGFR2b, or human FGFR2c. Expi293 cells expressing antigens were seeded in 96-well plates, and were incubated with serially diluted anti-FGFR2b antibodies. Goat anti-human IgG [Alexa Fluor® 647] […] The change of mean fluorescent intensity (MFI) of humanized candidates BGAh9239 and BGAh9179 was measured by flow cytometry. EC50 values for dose-dependent binding to native human FGFR2b, cyno FGFR2b, mouse FGFR2b, and human FGFR2c were determined using sigmoidal dose-response curves of nonlinear fit from GraphPad Prism™.
# human FGFR2b [5] = target: T1, human FGFR2b; test: SPR affinity determination, human FGFR2b (Example 9); assay type: binding; conditions: for Kd: kd/ka
# Experimental: as §2
# Human FGFR2c [6] = target: T2, Human FGFR2c; test: FACS binding on Expi293 cells, human FGFR2c (Example 10); conditions: for Emax (MFI): Expi293 cells overexpressing human FGFR2c
# Experimental: as §3
# Human FGFR2b OE cells = target: T4, Human FGFR2b OE cells (Homo sapiens, UniProt P21802); test: FACS cellular binding, human FGFR2b OE cells (Example 4)
# T4 construct: expressed in transfected cells; host or cells: 293T
# Experimental: as §1
# human FGFR2b [7] = target: T1, human FGFR2b; test: FACS binding to native FGFR2b on Expi293 cells, human FGFR2b (Example 10); conditions: Expi293 cells overexpressing human FGFR2b
# Experimental: as §3
# human FGFR2b [8] = target: T1, human FGFR2b; test: ELISA binding to recombinant human FGFR2b (Example 11)
# Murine FGFR2b OE cells = target: T5, Murine FGFR2b OE cells (Mus musculus, UniProt P21803); test: FACS cellular binding, murine FGFR2b OE cells (Example 4)
# T5 construct: expressed in transfected cells; host or cells: 293T
# Experimental: as §1
# Human FGFR2c [9] = target: T2, Human FGFR2c; test: ELISA binding to recombinant human FGFR2c (Example 11); conditions: for Emax (A450): human FGFR2c; for binding to human FGFR2c: in words
# Cyno FGFR2b [10] = test: ELISA binding to recombinant cyno FGFR2b (Example 11)
# [11] = target: T6, soluble human FGFR2b proteins (Homo sapiens, UniProt P21802); test: SPR binding kinetics (Biacore 8K, Example 5); conditions: room temperature
# T6 construct: soluble human FGFR2b proteins (his tag, in-house generated); His tag; made in house
# Experimental: The binding affinity and kinetics of purified anti-FGFR2b antibodies were determined by surface plasmon resonance (Biacore 8K, GE Life Sciences) at room temperature. Briefly, mouse anti-human IgG Fc antibody was immobilized via amine coupling onto a activated CM5 biosensor chip (Cat. No. BR100530, GE Life Sciences). Purified monoclonal antibody candidates were flowed over the chip surface and captured by anti-human IgG antibody. Then a serial dilution of soluble human FGFR2b proteins (his tag, in-house generated) were injected over the antibodies captured surface and changes in surface plasmon resonance signals were analyzed to calculate the association rates (kon) and dissociation rates (koff) by using the one-to-one Langmuir binding model (BIA Evaluation Software, GE Life Sciences). The equilibrium dissociation constant (KD) was calculated as the ratio koff/kon.
# [12] = clinical trial, terminated early; cited from earlier work
# T3 sequence (P21803 22-707 isoform P21803-2 limits assumed): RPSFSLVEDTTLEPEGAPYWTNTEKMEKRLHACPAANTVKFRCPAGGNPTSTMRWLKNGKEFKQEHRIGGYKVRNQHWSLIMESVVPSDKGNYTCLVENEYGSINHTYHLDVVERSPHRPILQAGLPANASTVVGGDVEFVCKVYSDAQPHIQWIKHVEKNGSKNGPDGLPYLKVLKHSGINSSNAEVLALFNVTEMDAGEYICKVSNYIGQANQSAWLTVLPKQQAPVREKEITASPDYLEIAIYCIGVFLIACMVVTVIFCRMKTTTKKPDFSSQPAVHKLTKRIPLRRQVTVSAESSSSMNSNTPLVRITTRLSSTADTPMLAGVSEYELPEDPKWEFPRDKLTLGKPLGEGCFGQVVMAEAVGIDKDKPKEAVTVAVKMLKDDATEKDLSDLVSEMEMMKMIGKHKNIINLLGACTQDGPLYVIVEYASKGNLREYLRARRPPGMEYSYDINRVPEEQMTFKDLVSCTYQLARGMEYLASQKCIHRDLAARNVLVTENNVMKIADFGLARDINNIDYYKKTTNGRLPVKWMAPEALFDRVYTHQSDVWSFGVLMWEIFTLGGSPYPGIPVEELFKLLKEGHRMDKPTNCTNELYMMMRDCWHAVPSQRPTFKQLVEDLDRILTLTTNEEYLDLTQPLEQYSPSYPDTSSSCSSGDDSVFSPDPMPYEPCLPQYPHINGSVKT
# T2 sequence (P21802 22-821): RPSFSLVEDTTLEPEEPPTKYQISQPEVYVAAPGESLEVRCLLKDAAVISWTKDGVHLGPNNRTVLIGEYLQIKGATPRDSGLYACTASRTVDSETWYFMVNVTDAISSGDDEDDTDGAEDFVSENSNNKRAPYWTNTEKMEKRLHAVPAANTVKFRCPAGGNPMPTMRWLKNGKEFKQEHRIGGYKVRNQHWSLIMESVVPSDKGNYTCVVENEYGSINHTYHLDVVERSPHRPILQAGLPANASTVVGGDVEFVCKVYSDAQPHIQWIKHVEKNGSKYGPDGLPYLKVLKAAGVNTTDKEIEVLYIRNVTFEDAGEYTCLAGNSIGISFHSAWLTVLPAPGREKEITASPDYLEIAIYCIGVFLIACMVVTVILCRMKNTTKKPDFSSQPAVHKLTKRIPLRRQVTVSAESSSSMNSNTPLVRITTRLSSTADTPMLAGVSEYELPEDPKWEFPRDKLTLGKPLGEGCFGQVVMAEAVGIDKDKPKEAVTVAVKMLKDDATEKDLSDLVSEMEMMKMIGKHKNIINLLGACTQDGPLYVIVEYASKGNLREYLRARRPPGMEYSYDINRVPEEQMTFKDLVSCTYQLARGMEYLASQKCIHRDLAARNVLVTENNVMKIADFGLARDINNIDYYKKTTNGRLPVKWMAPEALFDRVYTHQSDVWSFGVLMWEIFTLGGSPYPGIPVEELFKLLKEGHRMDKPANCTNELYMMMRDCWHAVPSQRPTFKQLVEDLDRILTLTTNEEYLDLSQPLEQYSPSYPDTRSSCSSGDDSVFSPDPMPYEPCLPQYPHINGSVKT
# T6 sequence (P21802 22-378 isoform P21802-3 limits assumed): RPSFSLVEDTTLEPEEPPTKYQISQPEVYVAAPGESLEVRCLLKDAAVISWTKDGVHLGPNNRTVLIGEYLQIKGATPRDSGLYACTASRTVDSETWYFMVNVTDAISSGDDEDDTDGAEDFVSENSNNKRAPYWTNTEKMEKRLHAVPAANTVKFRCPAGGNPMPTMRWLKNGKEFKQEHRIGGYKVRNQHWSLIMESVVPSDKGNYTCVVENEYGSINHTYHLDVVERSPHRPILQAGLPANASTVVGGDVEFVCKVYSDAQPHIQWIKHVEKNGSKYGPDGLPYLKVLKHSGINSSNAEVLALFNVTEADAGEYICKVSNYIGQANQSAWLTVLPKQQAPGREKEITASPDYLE
# T1 sequence (P21802 22-822 isoform P21802-3 limits assumed): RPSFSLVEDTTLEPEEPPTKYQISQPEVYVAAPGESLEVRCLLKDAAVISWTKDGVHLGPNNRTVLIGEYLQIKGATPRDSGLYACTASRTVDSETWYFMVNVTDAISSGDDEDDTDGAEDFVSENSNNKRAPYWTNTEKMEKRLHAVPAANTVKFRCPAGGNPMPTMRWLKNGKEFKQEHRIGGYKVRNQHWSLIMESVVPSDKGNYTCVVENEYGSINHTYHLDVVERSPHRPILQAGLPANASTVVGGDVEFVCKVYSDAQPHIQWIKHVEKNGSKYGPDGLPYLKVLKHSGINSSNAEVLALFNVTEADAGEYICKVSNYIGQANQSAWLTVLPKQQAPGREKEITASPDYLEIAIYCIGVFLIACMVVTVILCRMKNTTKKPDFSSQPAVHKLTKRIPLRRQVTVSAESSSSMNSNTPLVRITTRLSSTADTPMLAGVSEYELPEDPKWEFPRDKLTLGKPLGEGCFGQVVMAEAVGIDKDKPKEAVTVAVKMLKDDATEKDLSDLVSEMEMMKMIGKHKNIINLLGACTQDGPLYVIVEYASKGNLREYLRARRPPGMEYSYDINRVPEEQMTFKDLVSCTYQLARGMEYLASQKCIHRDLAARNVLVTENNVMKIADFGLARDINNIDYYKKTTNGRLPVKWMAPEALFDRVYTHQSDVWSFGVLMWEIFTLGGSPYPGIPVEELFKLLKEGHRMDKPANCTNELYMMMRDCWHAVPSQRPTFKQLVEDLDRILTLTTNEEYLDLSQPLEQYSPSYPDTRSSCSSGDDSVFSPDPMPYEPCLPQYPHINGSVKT
# T5 sequence (P21803 22-707 isoform P21803-2 limits assumed): as the sequence (P21803 22-707 isoform P21803-2 limits assumed) above
# Chain of Human FGFR2c OE cells (P21802 22-821): as the sequence (P21802 22-821) above
# T4 sequence (P21802 22-822 isoform P21802-3 limits assumed): as the sequence (P21802 22-822 isoform P21802-3 limits assumed) above
Molecule,Human FGFR2c OE cells binding Emax (Human FGFR2c OE cells) [MFI],EC50 (human FGFR2b [2]) [nM],Human FGFR2b binding Emax(OD450) (human FGFR2b [2]),Human FGFR2c binding Emax(OD450) (Human FGFR2c [3]),ka (Cyno FGFR2b [4]) [M^−1S^−1],kd (Cyno FGFR2b [4]) [S^−1],293T blank cells binding Emax (293T blank cells) [MFI],EC50 (Mouse FGFR2b) [nM],Emax (MFI) (Mouse FGFR2b),Rmax (human FGFR2b [5]) [RU],ka (human FGFR2b [5]) [M^−1S^−1],kd (human FGFR2b [5]) [S^−1],Kd (human FGFR2b [5]) [nM],Emax (MFI) (Human FGFR2c [6]),EC50 (Human FGFR2b OE cells) [nM],EC50 (human FGFR2b [7]) [nM],Emax (MFI) (human FGFR2b [7]),EC50 (human FGFR2b [8]) [nM],Emax (A450) (human FGFR2b [8]),EC50 (Murine FGFR2b OE cells) [nM],other results
B1,33,0.19,3.35,0.07,7.97E+04,1.25E−03,28,3.5,4984598,96.3,7.29E+04,1.19E−03,16.3,23051,1.25,1.5,3052664,0.0309,3.013,1.78,FGF7-induced FGFR phosphorylation [1]: weakly inhibited; inhibition of FGF7-induced BaF3_hFGFR2b cell proliferation (BaF3_hFGFR2b OE cells; FGF7 40 ng/ml): ten times less potent compared to BGA1421 and BGAm1823; also recorded: weaker blocking than comparator BGA1421; inhibition of FGF10-induced BaF3_hFGFR2b cell proliferation (BaF3_hFGFR2b OE cells; FGF10 40 ng/ml): did not inhibit the net growth; Emax (A450) (Human FGFR2c [9]): 0.204 A450; binding to human FGFR2c (Human FGFR2c [9]): no detectable binding; Emax (A450) (Cyno FGFR2b [10]): 3.018 A450
B2,36,0.26,3.37,0.07,7.99E+04,2.72E−03,31,2.67,5098781,80.9,8.05E+04,3.00E−03,37.3,23848,1.84,2.4,3082608,0.031,2.945,1.59,"binding to native human FGFR2c (Human FGFR2c [6]; living Expi293 cells, in words): no detectable binding; Emax (A450) (Human FGFR2c [9]): 0.130 A450; binding to human FGFR2c (Human FGFR2c [9]): no detectable binding; Emax (A450) (Cyno FGFR2b [10]): 2.931 A450; ka ([11]; antibody captured): 76600 M⁻¹ s⁻¹; kd ([11]; antibody captured): 0.00189 s⁻¹; Kd ([11]; koff/kon): 24.7 nM"
B3,–,–,–,–,–,–,–,–,–,–,–,–,–,–,–,–,–,–,–,–,tolerability in clinical testing [12]: poorly tolerated
